For series [1], the target named is full-length Casp-8 F122G/L123G/C360A/D374A/D384A (UniProt Q14790 1-479, F122G | L123G | C360A | D374A | D384A). Description: co-purification.
Series [2] concerns the molecule itself. Description: cryo-EM structure.
Series [3] has as its target T1, His-tagged full-length FADD F25Y (UniProt Q13158 1-208, F25Y).
T1 sequence: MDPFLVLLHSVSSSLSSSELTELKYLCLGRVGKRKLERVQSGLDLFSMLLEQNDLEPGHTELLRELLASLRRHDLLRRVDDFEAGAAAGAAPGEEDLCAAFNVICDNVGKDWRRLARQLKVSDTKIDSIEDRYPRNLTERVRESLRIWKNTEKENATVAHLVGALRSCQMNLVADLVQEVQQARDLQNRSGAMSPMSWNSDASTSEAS
Description: pull-down.

Series [4] has as its target wild-type cFLIP^tDED (residues 1-181) (UniProt O15519 1-181). Description: crystal structure.

Positions count from the first letter of the chain named. In names and notes the source's numbering stands.

B1: His-tagged full-length FADD F25G (natural protein)
chain: T1 sequence with Y25G
Take B1: in series [1], the binding result was “binds”. In addition, in series [2], the stoichiometry N (commonly a count of units in the complex or per binding partner) was determined as 3 molecules in the complex.

B2: binary CF^H7G-C8^FGLG complex, His-tag removed, SEC-purified (complex)
chain 1: […]
chain 2: MDFSRNLYDIGEQLDSEDLASLKFLSLDYIPQRKQEPIKDALMLFQRLQEKRMLEESNLSFLKELLFRINRLDLLITYLNTRKEEMERELQTPGRAQISAYRVMLYQISEEVSRSELRSFKGGLQEEISKCKLDDDMNLLDIFIEMEKRVILGEGKLDILKRVCAQINKSLLKIINDYEEFSKER
Regarding B2, the binding result in series [3] is recorded as “binds”.

B3: Casp-8^tDED_FGLG (procaspase-8 tandem DED, residues 1-185, F122G/L123G) (domain or fragment)
chain: B2 chain 2
B3: in series [4], the binding result is recorded as “binds”.

These data come from article PMC11487272 (Nature Communications, 2024).
